Laboratory results: patent US20250296959A1, “B7-H3 TARGETING PEPTIDES AND CONSTRUCTS THEREOF” (Mariana Oncology Inc., priority 2024, published 2025)
Starred links: 1 amine or outer side, 2 acyl side, 3 side chain; linkers in the order of their positions; H or OH if unused. Positions of bridges follow the written chain, without caps; N, C: chain ends. Non-standard residues stand in square brackets, D forms with d. Groups on a side chain read outwards from the residue. Primed or numbered codes have the meaning given here. *: point of attachment. Ala(piperidin-4-yl) = O=C([C@H](CC1CCN([*:3])CC1)N[*:1])[*:2]; DOTA = O=C(O)CN1CCN(CC(=O)O)CCN(CC(=O)*)CCN(CC(=O)O)CC1; Phe(4-COOH) = N[C@@H](Cc1ccc(C(=O)O)cc1)C(=O)O; Trp(5-F) = N[C@@H](Cc1c[nH]c2ccc(F)cc12)C(=O)O; PEG4′ = 4x 3-(2-aminoethoxy)propanoic acid; 1Nal = N[C@@H](Cc1cccc2ccccc12)C(=O)O; Ala(4-THP) = N[C@@H](CC1CCOCC1)C(=O)O; Val(3-OH) = CC(C)(O)[C@H](N)C(=O)O; 4Pal = N[C@@H](Cc1ccncc1)C(=O)O; aThr = C[C@H](O)[C@H](N)C(=O)O; Chg = N[C@H](C(=O)O)C1CCCCC1; Tle = CC(C)(C)[C@H](N)C(=O)O; hLeu = CC(C)CC[C@H](N)C(=O)O; Sar = CNCC(=O)O

T1: B7-H3 on Calu-6 cells (human, UniProt Q5ZPR3 29-534)
T1 construct: whole, on cells
T1 sequence (looked up): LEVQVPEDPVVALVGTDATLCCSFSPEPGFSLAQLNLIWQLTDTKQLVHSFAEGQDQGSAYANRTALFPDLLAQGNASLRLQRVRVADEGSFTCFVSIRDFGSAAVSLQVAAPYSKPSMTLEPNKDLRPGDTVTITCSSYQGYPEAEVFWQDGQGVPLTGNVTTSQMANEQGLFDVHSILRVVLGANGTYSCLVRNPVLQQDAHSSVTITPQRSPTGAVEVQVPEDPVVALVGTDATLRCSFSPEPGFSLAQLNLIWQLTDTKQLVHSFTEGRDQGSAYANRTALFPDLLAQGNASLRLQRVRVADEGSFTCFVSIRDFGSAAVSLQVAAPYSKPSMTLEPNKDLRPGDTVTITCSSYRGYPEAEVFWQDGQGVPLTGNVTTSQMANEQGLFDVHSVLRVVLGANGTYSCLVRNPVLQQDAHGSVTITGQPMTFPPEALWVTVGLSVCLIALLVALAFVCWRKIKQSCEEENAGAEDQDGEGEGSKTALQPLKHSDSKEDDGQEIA

B1: Cpd 286 (peptide)
peptide: Ac-[hLeu]YCVG[Ala(piperidin-4-yl)][Phe(4-COOH)]DVYC[Trp(5-F)]FP[dK](DOTA)-NH2
modifications: disulfide 3-11
SMILES: CC(=O)N[C@@H](CCC(C)C)C(=O)N[C@@H](Cc1ccc(O)cc1)C(=O)N[C@H]1CSSC[C@@H](C(=O)N[C@@H](Cc2c[nH]c3ccc(F)cc23)C(=O)N[C@@H](Cc2ccccc2)C(=O)N2CCC[C@H]2C(=O)N[C@H](CCCCNC(=O)CN2CCN(CC(=O)O)CCN(CC(=O)O)CCN(CC(=O)O)CC2)C(N)=O)NC(=O)[C@H](Cc2ccc(O)cc2)NC(=O)[C@H](C(C)C)NC(=O)[C@H](CC(=O)O)NC(=O)[C@H](Cc2ccc(C(=O)O)cc2)NC(=O)[C@H](CC2CCNCC2)NC(=O)CNC(=O)[C@H](C(C)C)NC1=O
B2: Cpd 200 (peptide)
peptide: Ac-[hLeu]YCVGK[Ala(4-THP)]DVYC[Trp(5-F)]FT[dK](DOTA)-NH2
modifications: disulfide 3-11
SMILES: CC(=O)N[C@@H](CCC(C)C)C(=O)N[C@@H](Cc1ccc(O)cc1)C(=O)N[C@H]1CSSC[C@@H](C(=O)N[C@@H](Cc2c[nH]c3ccc(F)cc23)C(=O)N[C@@H](Cc2ccccc2)C(=O)N[C@H](C(=O)N[C@H](CCCCNC(=O)CN2CCN(CC(=O)O)CCN(CC(=O)O)CCN(CC(=O)O)CC2)C(N)=O)[C@@H](C)O)NC(=O)[C@H](Cc2ccc(O)cc2)NC(=O)[C@H](C(C)C)NC(=O)[C@H](CC(=O)O)NC(=O)[C@H](CC2CCOCC2)NC(=O)[C@H](CCCCN)NC(=O)CNC(=O)[C@H](C(C)C)NC1=O
B3: Cpd 77 (peptide)
peptide: Ac-[hLeu]YCV[Sar]KYDVYC[Trp(5-F)]FT[dK](DOTA)-NH2
modifications: disulfide 3-11
SMILES: CC(=O)N[C@@H](CCC(C)C)C(=O)N[C@@H](Cc1ccc(O)cc1)C(=O)N[C@H]1CSSC[C@@H](C(=O)N[C@@H](Cc2c[nH]c3ccc(F)cc23)C(=O)N[C@@H](Cc2ccccc2)C(=O)N[C@H](C(=O)N[C@H](CCCCNC(=O)CN2CCN(CC(=O)O)CCN(CC(=O)O)CCN(CC(=O)O)CC2)C(N)=O)[C@@H](C)O)NC(=O)[C@H](Cc2ccc(O)cc2)NC(=O)[C@H](C(C)C)NC(=O)[C@H](CC(=O)O)NC(=O)[C@H](Cc2ccc(O)cc2)NC(=O)[C@H](CCCCN)NC(=O)CN(C)C(=O)[C@H](C(C)C)NC1=O
B4: Cpd 158 (peptide)
peptide: Ac-[hLeu]YCVGKYDVYC[1Nal]FT[dK](DOTA)-NH2
modifications: disulfide 3-11
SMILES: CC(=O)N[C@@H](CCC(C)C)C(=O)N[C@@H](Cc1ccc(O)cc1)C(=O)N[C@H]1CSSC[C@@H](C(=O)N[C@@H](Cc2cccc3ccccc23)C(=O)N[C@@H](Cc2ccccc2)C(=O)N[C@H](C(=O)N[C@H](CCCCNC(=O)CN2CCN(CC(=O)O)CCN(CC(=O)O)CCN(CC(=O)O)CC2)C(N)=O)[C@@H](C)O)NC(=O)[C@H](Cc2ccc(O)cc2)NC(=O)[C@H](C(C)C)NC(=O)[C@H](CC(=O)O)NC(=O)[C@H](Cc2ccc(O)cc2)NC(=O)[C@H](CCCCN)NC(=O)CNC(=O)[C@H](C(C)C)NC1=O
B5: Cpd 190 (peptide)
peptide: Ac-[hLeu]YCVGK[4Pal]D[Chg]YC[Trp(5-F)]FT[dK](DOTA)-NH2
modifications: disulfide 3-11
SMILES: CC(=O)N[C@@H](CCC(C)C)C(=O)N[C@@H](Cc1ccc(O)cc1)C(=O)N[C@H]1CSSC[C@@H](C(=O)N[C@@H](Cc2c[nH]c3ccc(F)cc23)C(=O)N[C@@H](Cc2ccccc2)C(=O)N[C@H](C(=O)N[C@H](CCCCNC(=O)CN2CCN(CC(=O)O)CCN(CC(=O)O)CCN(CC(=O)O)CC2)C(N)=O)[C@@H](C)O)NC(=O)[C@H](Cc2ccc(O)cc2)NC(=O)[C@H](C2CCCCC2)NC(=O)[C@H](CC(=O)O)NC(=O)[C@H](Cc2ccncc2)NC(=O)[C@H](CCCCN)NC(=O)CNC(=O)[C@H](C(C)C)NC1=O
B6: Cpd 76 (peptide)
peptide: Ac-[hLeu]YC[Tle]GKYDVYC[Trp(5-F)]FT[dK](DOTA)-NH2
modifications: disulfide 3-11
SMILES: CC(=O)N[C@@H](CCC(C)C)C(=O)N[C@@H](Cc1ccc(O)cc1)C(=O)N[C@H]1CSSC[C@@H](C(=O)N[C@@H](Cc2c[nH]c3ccc(F)cc23)C(=O)N[C@@H](Cc2ccccc2)C(=O)N[C@H](C(=O)N[C@H](CCCCNC(=O)CN2CCN(CC(=O)O)CCN(CC(=O)O)CCN(CC(=O)O)CC2)C(N)=O)[C@@H](C)O)NC(=O)[C@H](Cc2ccc(O)cc2)NC(=O)[C@H](C(C)C)NC(=O)[C@H](CC(=O)O)NC(=O)[C@H](Cc2ccc(O)cc2)NC(=O)[C@H](CCCCN)NC(=O)CNC(=O)[C@H](C(C)(C)C)NC1=O
B7: Cpd 72 (peptide)
peptide: Ac-[hLeu]YC[Tle]GKYDVYCWFT[dK](DOTA)-NH2
modifications: disulfide 3-11
SMILES: CC(=O)N[C@@H](CCC(C)C)C(=O)N[C@@H](Cc1ccc(O)cc1)C(=O)N[C@H]1CSSC[C@@H](C(=O)N[C@@H](Cc2c[nH]c3ccccc23)C(=O)N[C@@H](Cc2ccccc2)C(=O)N[C@H](C(=O)N[C@H](CCCCNC(=O)CN2CCN(CC(=O)O)CCN(CC(=O)O)CCN(CC(=O)O)CC2)C(N)=O)[C@@H](C)O)NC(=O)[C@H](Cc2ccc(O)cc2)NC(=O)[C@H](C(C)C)NC(=O)[C@H](CC(=O)O)NC(=O)[C@H](Cc2ccc(O)cc2)NC(=O)[C@H](CCCCN)NC(=O)CNC(=O)[C@H](C(C)(C)C)NC1=O
B8: Cpd 73 (peptide)
peptide: Ac-[hLeu]YCVGKYDVYC[Trp(5-F)]FT[dK](DOTA)-NH2
modifications: disulfide 3-11
SMILES: CC(=O)N[C@@H](CCC(C)C)C(=O)N[C@@H](Cc1ccc(O)cc1)C(=O)N[C@H]1CSSC[C@@H](C(=O)N[C@@H](Cc2c[nH]c3ccc(F)cc23)C(=O)N[C@@H](Cc2ccccc2)C(=O)N[C@H](C(=O)N[C@H](CCCCNC(=O)CN2CCN(CC(=O)O)CCN(CC(=O)O)CCN(CC(=O)O)CC2)C(N)=O)[C@@H](C)O)NC(=O)[C@H](Cc2ccc(O)cc2)NC(=O)[C@H](C(C)C)NC(=O)[C@H](CC(=O)O)NC(=O)[C@H](Cc2ccc(O)cc2)NC(=O)[C@H](CCCCN)NC(=O)CNC(=O)[C@H](C(C)C)NC1=O
B9: Cpd 157 (peptide)
peptide: Ac-[hLeu]YC[Tle]GK[4Pal]DVYCWFT[dK](DOTA)-NH2
modifications: disulfide 3-11
SMILES: CC(=O)N[C@@H](CCC(C)C)C(=O)N[C@@H](Cc1ccc(O)cc1)C(=O)N[C@H]1CSSC[C@@H](C(=O)N[C@@H](Cc2c[nH]c3ccccc23)C(=O)N[C@@H](Cc2ccccc2)C(=O)N[C@H](C(=O)N[C@H](CCCCNC(=O)CN2CCN(CC(=O)O)CCN(CC(=O)O)CCN(CC(=O)O)CC2)C(N)=O)[C@@H](C)O)NC(=O)[C@H](Cc2ccc(O)cc2)NC(=O)[C@H](C(C)C)NC(=O)[C@H](CC(=O)O)NC(=O)[C@H](Cc2ccncc2)NC(=O)[C@H](CCCCN)NC(=O)CNC(=O)[C@H](C(C)(C)C)NC1=O
B10: Cpd 74 (peptide)
peptide: Ac-[hLeu]YCV[Sar]KYDVYCWFT[dK](DOTA)-NH2
modifications: disulfide 3-11
SMILES: CC(=O)N[C@@H](CCC(C)C)C(=O)N[C@@H](Cc1ccc(O)cc1)C(=O)N[C@H]1CSSC[C@@H](C(=O)N[C@@H](Cc2c[nH]c3ccccc23)C(=O)N[C@@H](Cc2ccccc2)C(=O)N[C@H](C(=O)N[C@H](CCCCNC(=O)CN2CCN(CC(=O)O)CCN(CC(=O)O)CCN(CC(=O)O)CC2)C(N)=O)[C@@H](C)O)NC(=O)[C@H](Cc2ccc(O)cc2)NC(=O)[C@H](C(C)C)NC(=O)[C@H](CC(=O)O)NC(=O)[C@H](Cc2ccc(O)cc2)NC(=O)[C@H](CCCCN)NC(=O)CN(C)C(=O)[C@H](C(C)C)NC1=O

Biological target: T1, B7-H3 on Calu-6 cells
Test: 177Lu-labelled peptide on Calu-6 cells, % cell associated fraction; C = >50%

% cell associated fraction [%] | Binder
> 50 | Ac-[hLeu]YCIGK[Ala(4-THP)]DVYC[Trp(5-F)]F[Val(3-OH)][dK]([PEG4′-DOTA])-OH (disulfide 3-11) [Cpd 308]
> 50 | Ac-[hLeu]YCVGKYD[Chg]YC[Trp(5-F)]FT[dK](DOTA)-NH2 (disulfide 3-11) [Cpd 215]
> 50 | B1
> 50 | B2
> 50 | B3
> 50 | B4
> 50 | B5
> 50 | B6
> 50 | B7
> 50 | B8

Biological target: T1, B7-H3 on Calu-6 cells
Test: 177Lu-labelled peptide on Calu-6 cells, % cell associated fraction; B = 25<%<=50

% cell associated fraction [%] | Binder
25 to 50 | B9
25 to 50 | B10
25 to 50 | Ac-[hLeu]YCVGKYDVYC[Trp(5-F)]F[aThr][dK](DOTA)-NH2 (disulfide 3-11) [Cpd 162]
25 to 50 | Ac-[hLeu]YCVGKYDVYC[Trp(5-F)]FP[dK](DOTA)-NH2 (disulfide 3-11) [Cpd 160]
